B1: RAC-alpha serine/threonine-protein kinase (Mus musculus), P31750 (parent)
chain: MNDVAIVKEGWLHKRGEYIKTWRPRYFLLKNDGTFIGYKERPQDVDQRESPLNNFSVAQCQLMKTERPRPNTFIIRCLQWTTVIERTFHVETPEEREEWATAIQTVADGLKRQEEETMDFRSGSPSDNSGAEEMEVSLAKPKHRVTMNEFEYLKLLGKGTFGKVILVKEKATGRYYAMKILKKEVIVAKDEVAHTLTENRVLQNSRHPFLTALKYSFQTHDRLCFVMEYANGGELFFHLSRERVFSEDRARFYGAEIVSALDYLHSEKNVVYRDLKLENLMLDKDGHIKITDFGLCKEGIKDGATMKTFCGTPEYLAPEVLEDNDYGRAVDWWGLGVVMYEMMCGRLPFYNQDHEKLFELILMEEIRFPRTLGPEAKSLLSGLLKKDPTQRLGGGSEDAKEIMQHRFFANIVWQDVYEKKLSPPFKPQVTSETDTRYFDEEFTAQMITITPPDQDDSMECVDSERRPHFPQFSYSASGTA

Variants of: B1
Conditions: with hs90a_mouse Hsp90aa1, P07901

Row | Variant | effect of a mutation on the interaction
1 | MNDVAIVKEGWLHKRGEYIKTWRPRYFLLKNDGTFIGYKERPQDVDQRESPLNNFSVAQCQLMKTERPRPNTFIIRCLQWTTVIERTFHVETPEEREEWATAIQTVADGLKRQEEETMDFRSGSPSDNSGAEEMEVSLAKPKHRVTMNEFEYLKLLGKGTFGMVILVKEKATGRYYAMKILKKEVIVAKDEVAHTLTENRVLQNSRHPFLTALKYSFQTHDRLCFVMEYANGGELFFHLSRERVFSEDRARFYGAEIVSALDYLHSEKNVVYRDLKLENLMLDKDGHIKITDFGLCKEGIKDGATMKTFCGTPEYLAPEVLEDNDYGRAVDWWGLGVVMYEMMCGRLPFYNQDHEKLFELILMEEIRFPRTLGPEAKSLLSGLLKKDPTQRLGGGSEDAKEIMQHRFFANIVWQDVYEKKLSPPFKPQVTSETDTRYFDEEFTAQMITITPPDQDDSMECVDSERRPHFPQFSYSASGTA [K163M] | increasing interaction

Variants of: B1
Conditions: with hs90a_mouse Hsp90aa1, P07901
Remark: another data set of the same source

Row | Variant | effect of a mutation on the interaction
2 | MNDVAIVKEGWLHKRGEYIKTWRPRYFLLKNDGTFIGYKERPQDVDQRESPLNNFSVAQCQLMKTERPRPNTFIIRCLQWTTVIERTFHVETPEEREEWATAIQTVADGLKRQEEETMDFRSGSPSDNSGAEEMEVSLAKPKHRVTMNEFEYLKLLGKGTFGKVILVKEKATGRYYAMKILMKEVIVAKDEVAHTLTENRVLQNSRHPFLTALKYSFQTHDRLCFVMEYANGGELFFHLSRERVFSEDRARFYGAEIVSALDYLHSEKNVVYRDLKLENLMLDKDGHIKITDFGLCKEGIKDGATMKTFCGTPEYLAPEVLEDNDYGRAVDWWGLGVVMYEMMCGRLPFYNQDHEKLFELILMEEIRFPRTLGPEAKSLLSGLLKKDPTQRLGGGSEDAKEIMQHRFFANIVWQDVYEKKLSPPFKPQVTSETDTRYFDEEFTAQMITITPPDQDDSMECVDSERRPHFPQFSYSASGTA [K182M] | increasing interaction
3 | MNDVAIVKEGWLHKRGEYIKTWRPRYFLLKNDGTFIGYKERPQDVDQRESPLNNFSVAQCQLMKTERPRPNTFIIRCLQWTTVIERTFHVETPEEREEWATAIQTVADGLKRQEEETMDFRSGSPSDNSGAEEMEVSLAKPKHRVTMNEFEYLKLLGKGTFGKVILVKEKATGRYYAMKILKKEVIVAKDEVAHTLTENRVLQNSRHPFLTALKYSFQTHDMLCFVMEYANGGELFFHLSRERVFSEDRARFYGAEIVSALDYLHSEKNVVYRDLKLENLMLDKDGHIKITDFGLCKEGIKDGATMKTFCGTPEYLAPEVLEDNDYGRAVDWWGLGVVMYEMMCGRLPFYNQDHEKLFELILMEEIRFPRTLGPEAKSLLSGLLKKDPTQRLGGGSEDAKEIMQHRFFANIVWQDVYEKKLSPPFKPQVTSETDTRYFDEEFTAQMITITPPDQDDSMECVDSERRPHFPQFSYSASGTA [R222M] | increasing interaction

Variants of: B1
Conditions: with hs90a_mouse Hsp90aa1, P07901
Remark: another data set of the same source

Row | Variant | effect of a mutation on the interaction
4 | MNDVAIVKEGWLHKRGEYIKTWRPRYFLLKNDGTFIGYKERPQDVDQRESPLNNFSVAQCQLMKTERPRPNTFIIRCLQWTTVIERTFHVETPEEREEWATAIQTVADGLKRQEEETMDFRSGSPSDNSGAEEMEVSLAKPKHRVTMNEFEYLKLLGKGTFGKVILVKEKATGRYYAMKILKKEVIVAKDEVAHTLTENRVLQNSRHPFLTALKYSFQTHDRLCFVMEYANGGELFFHLSRERVFSEDRARFYGAEIVSALDYLHSEKNVVYRDLKLENLMLDKDGHIKITDFGLCKEGIKDGATMKTFCGTPEYLAPEVLEDNDYGRAVDWWGLGVVMYEMMCGRLPFYNQDHEKLFELILMEEIRFPRTLGPEAKSLLSGLLKKDPTQRLGGGSEDAKEIMQHRFFANIVWQDVYEKKLSPPFKPQVTSETDTRYFDEEFAAQMITITPPDQDDSMECVDSERRPHFPQFSYSASGTA [T443A] | increasing interaction

Variants of: B1
Conditions: with hs90a_mouse Hsp90aa1, P07901
Remark: another data set of the same source

Row | Variant | effect of a mutation on the interaction
5 | MNDVAIVKEGWLHKRGEYIKTWRPRYFLLKNDGTFIGYKERPQDVDQRESPLNNFSVAQCQLMKTERPRPNTFIIRCLQWTTVIERTFHVETPEEREEWATAIQTVADGLKRQEEETMDFRSGSPSDNSGAEEMEVSLAKPKHRVTMNEFEYLKLLGKGTFGKVILVKEKATGRYYAMKILKKEVIVAKDEVAHTLTENRVLQNSRHPFLTALKYSFQTHDRLCFVMEYANGGELFFHLSRERVFSEDRARFYGAEIVSALDYLHSEKNVVYRDLKLENLMLDKDGHIKITDFGLCKEGIKDGATMKTFCGTPEYLAPEVLEDNDYGRAVDWWGLGVVMYEMMCGRLPFYNQDHEKLFELILMEEIRFPRTLGPEAKSLLSGLLKKDPTQRLGGGSEDAKEIMQHRFFANIVWQDVYEKKLSPPFKPQVTSETDTRYFDEEFTAQMITIAPPDQDDSMECVDSERRPHFPQFSYSASGTA [T450A] | increasing interaction

From IntAct's records for PubMed 18566586
